Test results taken from patent US8551717B2, “Method for determining sumoylation” (Medizinische Hochschule Hannover, priority 2008, dated 2013).
Blank lines part the entries; values can stand above or below the compound they belong to.

What was measured:
STAT1-FRB and STAT1-FKBP = biological target: T1, STAT1-FRB and STAT1-FKBP (Homo sapiens, UniProt P42224+P42345+P62942); assay: USDDS: AP21967-induced in vivo SUMOylation of STAT1 fusion proteins, western blot; assay type: cell-based; conditions: HEK293
T1 construct: seven C-terminal amino acids of the human STAT1a in the STAT1-FKBP/FRB fusion proteins are missing; FKBP domain (in STAT1-FKBP); expressed in transfected cells; host or cells: HEK293
T1 sequence (P42224 1-743 limits assumed): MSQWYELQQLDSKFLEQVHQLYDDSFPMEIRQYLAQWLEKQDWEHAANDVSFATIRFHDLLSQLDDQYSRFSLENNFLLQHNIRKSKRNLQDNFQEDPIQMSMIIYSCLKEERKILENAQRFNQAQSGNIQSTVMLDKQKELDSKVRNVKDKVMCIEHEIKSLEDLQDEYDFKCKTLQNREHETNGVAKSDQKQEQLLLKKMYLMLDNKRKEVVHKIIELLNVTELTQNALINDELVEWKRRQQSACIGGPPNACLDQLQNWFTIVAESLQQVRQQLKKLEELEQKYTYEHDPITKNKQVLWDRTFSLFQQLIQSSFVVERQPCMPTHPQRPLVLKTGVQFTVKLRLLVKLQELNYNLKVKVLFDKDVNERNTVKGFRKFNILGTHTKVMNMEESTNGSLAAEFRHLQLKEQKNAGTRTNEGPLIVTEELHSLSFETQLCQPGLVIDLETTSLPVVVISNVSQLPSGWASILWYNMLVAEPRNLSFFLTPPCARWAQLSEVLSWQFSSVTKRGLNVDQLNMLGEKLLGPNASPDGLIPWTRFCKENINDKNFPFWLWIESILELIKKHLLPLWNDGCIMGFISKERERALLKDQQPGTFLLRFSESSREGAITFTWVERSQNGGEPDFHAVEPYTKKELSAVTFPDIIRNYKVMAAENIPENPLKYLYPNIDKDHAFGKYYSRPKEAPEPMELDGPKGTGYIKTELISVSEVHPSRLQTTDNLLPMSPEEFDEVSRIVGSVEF
T1 sequence (P63279 whole entry partner, the tested form may be a part): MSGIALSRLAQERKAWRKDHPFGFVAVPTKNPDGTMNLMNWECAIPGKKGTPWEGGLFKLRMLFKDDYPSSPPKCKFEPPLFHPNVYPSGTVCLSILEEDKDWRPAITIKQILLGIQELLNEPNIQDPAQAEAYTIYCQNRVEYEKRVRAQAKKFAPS
T1 sequence (P62942 2-108 limits assumed): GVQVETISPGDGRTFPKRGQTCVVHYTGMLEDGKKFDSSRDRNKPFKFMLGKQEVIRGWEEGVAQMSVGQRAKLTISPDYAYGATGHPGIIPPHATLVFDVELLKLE
T1 sequence (P42345 2021-2113 limits assumed): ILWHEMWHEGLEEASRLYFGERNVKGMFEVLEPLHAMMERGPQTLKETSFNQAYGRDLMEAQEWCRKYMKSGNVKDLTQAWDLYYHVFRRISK
Excerpt: (§1) To identify new SUMOylation substrates and to study the function of SUMOylation the Ubc9/substrate dimerisation-dependent SUMOylation system (USDDS) was developed which consists of fusions of the SUMOylation substrate and of the SUMO-conjugating enzyme Ubc9 to the chemically activatable heterodimerisation domains FKBP and FRB, respectively, as shown in FIG. 2. When the substrate protein fused to FKBP is coexpressed with Ubc9-FRB, treatment of HEK293 cells with the rapamycin-related dimerizer AP21967 induces SUMOylation of the substrate protein fused to FKBP at its specific SUMOylation site. […] Dependent on an EcoRl site in the coding sequence, seven C-terminal amino acids of the human STAT1a in the STAT1-FKBP/FRB fusion proteins are missing. For the SUMOylation analysis HEK293 (human embryonic kidney cells) cells have been used. HEK293 cells were cultured in Dulbecco's modified Eagle's medium with high glucose, complemented with 10% fetal calf serum, 2 mM L-glutamine, 100 U/ml penicillin and […] streptomycin. We performed transfection of HEK293 cells using the polyethylenimine transfection reagent. HEK293 cells of a fresh confluent 10 cm plate were transferred on a 12-well plate. […]
(§2) When p53-FRB or STAT1-FRB were coexpressed with Ubc9-FKBP together with EGFP-SUMO1, no significant EGFP-SUMO1 conjugation of STAT1-FRB and of p53-FRB could be detected (FIG. 3A,B). […]

p53-FRB and p53-FKBP = assay: USDDS: AP21967-induced in vivo SUMOylation of p53 fusion proteins, western blot; assay type: cell-based, human; conditions: HEK293
Excerpt: as §1, §2

U-MK2 = biological target: T2, U-MK2 (Homo sapiens, UniProt P49137+P63279); assay: Trans-SUMOylation by U-MK2; assay type: cell-based; conditions: protein 2 construct coexpressed with U-MK2 and EGFP-SUMO1 in HEK293
T2 construct: expressed in transfected cells; host or cells: HEK293
T2 sequence (P63279+P49137 fused): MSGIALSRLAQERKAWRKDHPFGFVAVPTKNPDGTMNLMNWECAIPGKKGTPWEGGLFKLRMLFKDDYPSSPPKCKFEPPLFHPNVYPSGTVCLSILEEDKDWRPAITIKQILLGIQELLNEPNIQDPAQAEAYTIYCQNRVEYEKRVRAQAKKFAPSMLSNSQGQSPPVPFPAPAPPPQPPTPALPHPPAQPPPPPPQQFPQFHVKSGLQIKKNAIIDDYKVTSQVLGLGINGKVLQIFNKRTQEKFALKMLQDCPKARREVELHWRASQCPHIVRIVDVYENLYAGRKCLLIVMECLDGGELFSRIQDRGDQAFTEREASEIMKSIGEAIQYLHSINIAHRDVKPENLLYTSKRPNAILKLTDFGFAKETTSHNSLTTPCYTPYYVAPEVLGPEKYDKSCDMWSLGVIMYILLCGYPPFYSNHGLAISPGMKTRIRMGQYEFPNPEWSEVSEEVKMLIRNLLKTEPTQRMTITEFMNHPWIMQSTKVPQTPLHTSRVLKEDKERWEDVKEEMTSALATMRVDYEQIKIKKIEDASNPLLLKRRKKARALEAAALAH

U-p38α = biological target: T3, U-p38α (Homo sapiens, UniProt P63279+Q16539); assay: Trans-SUMOylation by U-p38α; assay type: cell-based; conditions: protein 2 construct coexpressed with U-p38α and EGFP-SUMO1 in HEK293
T3 construct: expressed in transfected cells; host or cells: HEK293
T3 sequence (P63279+Q16539 fused): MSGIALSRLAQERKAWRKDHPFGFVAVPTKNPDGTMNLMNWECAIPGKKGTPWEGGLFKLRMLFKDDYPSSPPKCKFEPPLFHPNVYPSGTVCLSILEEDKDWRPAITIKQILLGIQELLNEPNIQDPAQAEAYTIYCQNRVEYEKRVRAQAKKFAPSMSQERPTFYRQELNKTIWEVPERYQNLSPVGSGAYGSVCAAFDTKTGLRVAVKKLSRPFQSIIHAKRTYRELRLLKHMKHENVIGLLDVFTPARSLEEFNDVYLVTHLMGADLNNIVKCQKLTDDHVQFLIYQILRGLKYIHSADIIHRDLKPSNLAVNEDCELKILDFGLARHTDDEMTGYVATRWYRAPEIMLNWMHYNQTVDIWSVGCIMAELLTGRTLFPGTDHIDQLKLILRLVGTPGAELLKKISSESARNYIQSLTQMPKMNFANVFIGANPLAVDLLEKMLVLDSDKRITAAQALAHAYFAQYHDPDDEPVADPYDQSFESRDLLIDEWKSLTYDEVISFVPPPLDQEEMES

p53-U = biological target: T4, p53-U (Homo sapiens, UniProt P04637+P63279); assay: Trans-SUMOylation by p53-U; assay type: cell-based; conditions: western blot
T4 construct: expressed in transfected cells; host or cells: HEK293

MK2-U = biological target: T5, MK2-U (Homo sapiens, UniProt P49137+P63279); assay: Trans-SUMOylation by MK2-U; assay type: cell-based; conditions: protein 2 construct coexpressed with MK2-U and EGFP-SUMO1 in HEK293
T5 construct: expressed in transfected cells; host or cells: HEK293
T5 sequence (P49137+P63279 fused): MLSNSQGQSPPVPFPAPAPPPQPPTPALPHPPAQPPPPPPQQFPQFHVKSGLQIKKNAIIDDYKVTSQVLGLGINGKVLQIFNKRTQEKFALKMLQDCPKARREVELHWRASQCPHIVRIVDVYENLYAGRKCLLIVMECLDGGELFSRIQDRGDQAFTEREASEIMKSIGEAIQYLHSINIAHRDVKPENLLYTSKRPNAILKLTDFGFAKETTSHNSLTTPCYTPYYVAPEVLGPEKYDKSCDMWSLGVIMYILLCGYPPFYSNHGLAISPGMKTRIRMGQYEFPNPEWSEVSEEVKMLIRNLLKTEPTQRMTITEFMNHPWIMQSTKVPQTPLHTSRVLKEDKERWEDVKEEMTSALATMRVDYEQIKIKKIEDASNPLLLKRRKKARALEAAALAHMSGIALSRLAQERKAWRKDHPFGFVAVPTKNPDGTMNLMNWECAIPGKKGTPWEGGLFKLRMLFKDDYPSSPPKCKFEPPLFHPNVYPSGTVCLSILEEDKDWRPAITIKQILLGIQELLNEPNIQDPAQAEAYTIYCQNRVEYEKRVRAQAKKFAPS

JUN-U = biological target: T6, JUN-U (Homo sapiens, UniProt P05412+P63279); assay: Trans-SUMOylation by JUN-U; assay type: cell-based; conditions: protein 2 construct coexpressed with JUN-U and EGFP-SUMO1 in HEK293; western blot; Table 2
T6 construct: expressed in transfected cells; host or cells: HEK293
T6 sequence (P05412+P63279 fused): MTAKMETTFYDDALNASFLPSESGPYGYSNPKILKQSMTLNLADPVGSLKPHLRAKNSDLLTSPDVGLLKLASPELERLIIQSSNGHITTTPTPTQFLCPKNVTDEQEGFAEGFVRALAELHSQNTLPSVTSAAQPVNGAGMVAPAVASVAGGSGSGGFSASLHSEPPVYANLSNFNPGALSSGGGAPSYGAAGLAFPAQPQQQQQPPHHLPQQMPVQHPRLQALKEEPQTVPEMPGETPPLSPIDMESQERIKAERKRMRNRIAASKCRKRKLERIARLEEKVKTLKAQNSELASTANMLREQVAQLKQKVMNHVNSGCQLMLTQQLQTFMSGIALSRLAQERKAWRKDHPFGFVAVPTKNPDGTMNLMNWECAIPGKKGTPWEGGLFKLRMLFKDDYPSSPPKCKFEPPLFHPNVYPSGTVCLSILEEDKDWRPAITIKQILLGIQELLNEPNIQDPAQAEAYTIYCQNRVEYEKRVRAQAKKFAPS

U-CSNK2B = biological target: T7, U-CSNK2B (Homo sapiens, UniProt P63279+P67870); assay: Trans-SUMOylation by U-CSNK2B; assay type: cell-based; set-up: key: (++), strong TransSUMOylation; (+), TransSUMOylation; (+/−) weak TransSUMOylation; (−) no detectable TransSUMOylation; conditions: protein 2 construct coexpressed with U-CSNK2B and EGFP-SUMO1 in HEK293, western blot
T7 construct: expressed in transfected cells; host or cells: HEK293
T7 sequence (P63279+P67870 fused): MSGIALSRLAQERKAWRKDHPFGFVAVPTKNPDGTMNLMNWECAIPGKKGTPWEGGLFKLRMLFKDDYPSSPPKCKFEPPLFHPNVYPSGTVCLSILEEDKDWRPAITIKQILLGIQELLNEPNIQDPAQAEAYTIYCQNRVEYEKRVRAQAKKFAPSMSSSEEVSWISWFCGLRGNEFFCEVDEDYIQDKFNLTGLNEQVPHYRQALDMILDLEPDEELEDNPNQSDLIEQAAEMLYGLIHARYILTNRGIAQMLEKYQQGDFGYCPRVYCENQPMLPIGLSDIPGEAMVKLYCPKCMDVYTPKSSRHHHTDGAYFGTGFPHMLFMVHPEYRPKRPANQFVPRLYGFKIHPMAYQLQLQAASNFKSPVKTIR
Excerpt: as §1, with “plate. After 12-24 h incubation about 70% cell confluence is reached. For each well 45 μl of serum/antibiotic free DMEM medium is mixed with 750 ng of the transfection-purity expression vector DNA (all together 47 μl) and vortexed. Then, 3 μl of vortexed polyethylenimin stock solution (1 mg/ml) is added and the mixture is vortexed. After incubation at room temperature for 10 min 450 μl fresh DMEM with antibiotics is added to the mixture and vortexed. The medium on the cells was then completely removed and immediately, the 500 μl transfection mix was added carefully to each well.” for “plate.”
(§3) As shown above, the SUMOylation of a protein of interest can be induced by the heterodimerisation with a binding protein fused to Ubc9. […] Therefore the protein pairs were coexpressed with EGFP-SUMO1 in HEK293 cells and after 24h the transfectants were lysed and the protein extracts were analyzed in western blots. […]

U-MK5 = biological target: T8, U-MK5 (Homo sapiens, UniProt P63279+Q8IW41); assay: Trans-SUMOylation by U-MK5; assay type: cell-based; set-up: key: (++), strong TransSUMOylation; (+), TransSUMOylation; (+/−) weak TransSUMOylation; (−) no detectable TransSUMOylation; conditions: protein 2 construct coexpressed with U-MK5 and EGFP-SUMO1 in HEK293, western blot
T8 construct: expressed in transfected cells; host or cells: HEK293
T8 sequence (P63279+Q8IW41 fused): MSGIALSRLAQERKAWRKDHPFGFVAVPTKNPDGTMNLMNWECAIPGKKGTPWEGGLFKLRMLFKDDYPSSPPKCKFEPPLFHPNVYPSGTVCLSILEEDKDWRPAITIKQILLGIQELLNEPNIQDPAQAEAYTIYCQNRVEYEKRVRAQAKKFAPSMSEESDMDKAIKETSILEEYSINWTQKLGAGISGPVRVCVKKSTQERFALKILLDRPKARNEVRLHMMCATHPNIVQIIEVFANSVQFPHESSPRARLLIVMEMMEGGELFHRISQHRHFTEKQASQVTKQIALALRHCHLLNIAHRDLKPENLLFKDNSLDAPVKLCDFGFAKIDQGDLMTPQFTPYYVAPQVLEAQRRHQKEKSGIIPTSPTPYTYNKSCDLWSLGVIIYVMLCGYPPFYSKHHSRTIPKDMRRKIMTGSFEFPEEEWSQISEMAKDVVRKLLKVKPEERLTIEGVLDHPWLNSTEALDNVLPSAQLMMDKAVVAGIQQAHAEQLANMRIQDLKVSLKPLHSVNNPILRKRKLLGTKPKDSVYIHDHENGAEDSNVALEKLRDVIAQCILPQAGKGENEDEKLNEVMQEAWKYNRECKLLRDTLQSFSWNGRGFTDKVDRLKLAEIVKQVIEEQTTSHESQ
Excerpt: To identify new SUMOylation substrates and to study the function of SUMOylation the Ubc9/substrate dimerisation-dependent SUMOylation system (USDDS) was developed which consists of fusions of the SUMOylation substrate and of the SUMO-conjugating enzyme Ubc9 to the chemically activatable heterodimerisation domains FKBP and FRB, respectively, as shown in FIG. 2. When the substrate protein fused to FKBP is coexpressed with Ubc9-FRB, treatment of HEK293 cells with the rapamycin-related dimerizer AP21967 induces SUMOylation of the substrate protein fused to FKBP at its specific SUMOylation site. […] Dependent on an EcoRl site in the coding sequence, seven C-terminal amino acids of the human STAT1a in the STAT1-FKBP/FRB fusion proteins are missing. For the SUMOylation analysis HEK293 (human embryonic kidney cells) cells have been used. HEK293 cells were cultured in Dulbecco's modified Eagle's medium with high glucose, complemented with 10% fetal calf serum, 2 mM L-glutamine, 100 U/ml penicillin and […] streptomycin. We performed transfection of HEK293 cells using the polyethylenimine transfection reagent. HEK293 cells of a fresh confluent 10 cm plate were transferred on a 12-well plate. After 12-24 h incubation about 70% cell confluence is reached. For each well 45 μl of serum/antibiotic free DMEM medium is mixed with 750 ng of the transfection-purity expression vector DNA (all together 47 μl) and vortexed. Then, 3 μl of vortexed polyethylenimin stock solution (1 mg/ml) is added and the mixture is vortexed. After incubation at room temperature for 10 min 450 μl fresh DMEM with antibiotics is added to the mixture and vortexed. The medium on the cells was then completely removed and immediately, the 500 μl transfection mix was added carefully to each well. The 12 well plate was rocked to ensure a proper distribution of the DNA/transfection reagent complex. After an incubation of the cells for 24 h at a 37° C. in a humidified CO2-incubator (5%) the cells were lysed in 150 μl Laemmli (2×) gel loading buffer (160 mM Tris-HCL, pH 6.8, 4% (w/v) sodium dodecyl sulphate (SDS), 20% (v/v) glycerol, 0.5% β-mercaptoethanol (v/v), 0.008% (w/v) bromophenol blue) and incubated for 10 min at 95° C. For western blot analysis the proteins were separated by SDS-PAGE, blotted on a PVDF membrane and developed with specific primary antibodies (α-Ubc9 (H81, Santa Cruz), α-pY701-STAT1 (Tyr701, Cell Signaling), α-STAT1 (Cell Signaling), α-p53 (1C12, Cell Signaling), α-SUMO1 (Cell Signaling), a horseradish peroxidase (HRP)-conjugated secondary antibody (different companies), the ECL+ (Amersham) or Immobilon™ Western (Millipore) and the LAS-3000 imaging system (Fuji).
As shown above, the SUMOylation of a protein of interest can be induced by the heterodimerisation with a binding protein fused to Ubc9. To find out if Trans-SUMOylation is useful for the characterisation of common protein interactions, protein binding pairs well known from the literature or found in two hybrid screens. […] Therefore the protein pairs were coexpressed with EGFP-SUMO1 in HEK293 cells and after 24h the transfectants were lysed and the protein extracts were analyzed in western blots.
Protein-protein interactions described in the cited references were tested for Trans-SUMOylation. Each specific protein-protein interaction was tested by coexpression of different combinations of protein 1 fused to Ubc9 (U) with protein 2 mostly fused two a tag (HA, FLAG, Myc, GST, ST). (++), strong TransSUMOylation; (+), TransSUMOylation; (+/−) weak TransSUMOylation; (−) no detectable TransSUMOylation; (MEKK1ca) the activated MAP3 kinase MEKK1, that can enhance protein SUMOylation, was coexpressed.
Protein-protein interaction of each pair of protein 1/protein 2 was tested by coexpression of different combinations of a protein 1 fused to Ubc9 (U) with protein 2 mostly fused two a Tag (HA, FLAG, GST, ST). […]

U-PSMC3 = biological target: T9, U-PSMC3 (Homo sapiens, UniProt P17980+P63279); assay: Trans-SUMOylation by U-PSMC3; assay type: cell-based; set-up: key: (++), strong TransSUMOylation; (+), TransSUMOylation; (+/−) weak TransSUMOylation; (−) no detectable TransSUMOylation; conditions: protein 2 construct coexpressed with U-PSMC3 and EGFP-SUMO1 in HEK293; western blot; Table 1
T9 construct: expressed in transfected cells; host or cells: HEK293
T9 sequence (P63279+P17980 fused): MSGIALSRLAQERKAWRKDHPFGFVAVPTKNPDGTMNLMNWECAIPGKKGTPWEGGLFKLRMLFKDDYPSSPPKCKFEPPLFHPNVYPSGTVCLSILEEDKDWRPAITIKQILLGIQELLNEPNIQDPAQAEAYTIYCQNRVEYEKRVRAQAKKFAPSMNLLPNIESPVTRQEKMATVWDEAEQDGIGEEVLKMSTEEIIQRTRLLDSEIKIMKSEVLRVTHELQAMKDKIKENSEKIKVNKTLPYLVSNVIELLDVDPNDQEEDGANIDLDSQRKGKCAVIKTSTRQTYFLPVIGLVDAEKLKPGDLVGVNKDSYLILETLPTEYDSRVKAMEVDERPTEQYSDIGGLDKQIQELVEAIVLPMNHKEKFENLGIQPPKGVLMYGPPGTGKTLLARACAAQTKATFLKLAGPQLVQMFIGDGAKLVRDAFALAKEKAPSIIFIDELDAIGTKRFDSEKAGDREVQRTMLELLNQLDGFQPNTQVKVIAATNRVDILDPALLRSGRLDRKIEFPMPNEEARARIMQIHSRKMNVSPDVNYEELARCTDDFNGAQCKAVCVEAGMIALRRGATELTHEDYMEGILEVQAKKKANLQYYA
Excerpt: as §1, with “streptomycin.” for “streptomycin. We performed transfection of HEK293 cells using the polyethylenimine transfection reagent. HEK293 cells of a fresh confluent 10 cm plate were transferred on a 12-well plate.”
as §3

CSNK2B-U = biological target: T10, CSNK2B-U (Homo sapiens, UniProt P63279+P67870); assay: Trans-SUMOylation by CSNK2B-U; assay type: cell-based; conditions: protein 2 construct coexpressed with CSNK2B-U and EGFP-SUMO1 in HEK293; MEKK1ca coexpressed; Table 1
T10 construct: expressed in transfected cells; host or cells: HEK293

[1] = protein 2 construct coexpressed with P53-U (p53-U) and EGFP-SUMO1 in HEK293, Table 1

Compound: CO[C@H]1[C@@H](O)[C@H](C)C[C@H](C)/C=C/C=C/C=C(\C)[C@@H](c2c[nH]c3c(C)cccc23)C[C@@H]2CC[C@@H](C)[C@@](O)(O2)C(=O)C(=O)N2CCCC[C@H]2C(=O)O[C@H]([C@H](C)C[C@@H]2CC[C@@H](O)[C@H](OC)C2)C[C@H](O)[C@H](C)/C=C(\C)[C@H]1O [AP21967]
SUMOylation of STAT1-FKBP (STAT1-FRB and STAT1-FKBP; STAT1-FKBP in combination with Ubc9-FRB and EGFP-SUMO1, AP21967): induced SUMOylation | SUMOylation of STAT1-FRB (STAT1-FRB and STAT1-FKBP; STAT1-FRB coexpressed with Ubc9-FKBP and EGFP-SUMO1, AP21967 1 μM, western blot α-STAT1): strongly enhanced SUMOylation | SUMOylation of p53-FKBP (p53-FRB and p53-FKBP; p53-FKBP in combination with Ubc9-FRB and EGFP-SUMO1, AP21967): induced SUMOylation | SUMOylation of p53-FRB (p53-FRB and p53-FKBP; p53-FRB coexpressed with Ubc9-FKBP and EGFP-SUMO1, AP21967 1 μM, western blot α-p53): strongly enhanced SUMOylation

Compound: FLAG-p38α: p38α fused to FLAG tag
Trans-SUMOylation (U-MK2; western blot, Table 1): + | Trans-SUMOylation (MK2-U; western blot, Table 1): + | Trans-SUMOylation (JUN-U): − | Trans-SUMOylation (p53-U; [1]): − | Trans-SUMOylation (U-CSNK2B; Table 1): − | Trans-SUMOylation (U-MK5; Table 1): +

Compound: GST-FOS: FOS fused to GST tag
Trans-SUMOylation (MK2-U; western blot, Table 2): −

Compound: HA-CSNK2B: CSNK2B fused to HA tag
Trans-SUMOylation (CSNK2B-U): + (MEKK1ca)

The next lines start with the values.

Trans-SUMOylation (U-MK2; western blot, Table 2): + | Trans-SUMOylation (U-p38α; western blot, Table 1): + | Trans-SUMOylation (p53-U; [1]): −
Compound: ERK1: ERK1, protein 2 construct without tag

Trans-SUMOylation (U-MK2; western blot, Table 2): − | Trans-SUMOylation (U-p38α; western blot, Table 2): − | Trans-SUMOylation (U-MK5; Table 1): +
Compound: GST-ERK3: ERK3 fused to GST tag

Trans-SUMOylation (U-MK2; MEKK1 coexpressed, Table 2): ++ (MEKK1) | Trans-SUMOylation (U-MK2; western blot, Table 2): + | Trans-SUMOylation (U-p38α; MEKK1ca (Table 1B: MEKK1) coexpressed, Table 1): ++ (MEKK1ca) | Trans-SUMOylation (U-p38α; western blot, Table 1): + | Trans-SUMOylation (MK2-U; MEKK1 coexpressed, Table 2): ++ (MEKK1) | Trans-SUMOylation (MK2-U; western blot, Table 2): + | Trans-SUMOylation (JUN-U): − | Trans-SUMOylation (p53-U; protein 2 construct coexpressed with p53-U and EGFP-SUMO1 in HEK293, Table 2): − | Trans-SUMOylation (U-CSNK2B; Table 2): (+/−) | Trans-SUMOylation (U-MK5; Table 2): (+/−)
Compound: GST-MK2: MK2 fused to GST tag

Trans-SUMOylation (U-PSMC3): + | Trans-SUMOylation (MK2-U; western blot, Table 2): −
Compound: GST-PSMC3: PSMC3 fused to GST tag
